Experimental data taken from article PMC6356061.

Assays:
[1] = target: NMDA receptor GluN1 subunit (mouse (endogenous in primary cortical neurons)) (UniProt P35438); assay: co-IP; extracts of neurons exposed 10 min to 14.4 nM biotinylated Fib-Tau; immunoprecipitation with anti-α3-NKA, anti-GluA2 or anti-GluN1 and protein G magnetic beads, 4°C; Fib-Tau detected on slot blot with streptavidin-HRP; controls with pre-immune goat or rabbit IgG
[2] = target: NMDA receptor GluN1 subunit (mouse (endogenous in primary cortical neurons)) (UniProt P35438)

fold enrichment in Tau band intensity over pre-immune IgG control [1]: 1.8 fold
change in the amount (fluorescence intensity) of synaptic GluN1-NMDA after exposure of neurons to Fib-Tau (0.36 nM, 60 min); no change [2]: -3.2%
Substance: Biotin-labelled fibrillar Tau-1N3R (Fib-Tau-1N3R) (from UniProt P10636-4 1-381) (natural protein)
